Paper doi:10.1101/2022.09.26.507980 (bioRxiv, 2022)

Target: T1, NiV-F wild type expressed on 293T cells (Nipah virus, UniProt Q9IH63)
T1 construct: source: HEK293T, transiently transfected, on cells
Assay: flow cytometry on cells
Conditions: one partner purified

B1: mAb92 (antibody, V domains shown)
VH: QSLEESGGRLVTPGTPLTLTCTASGFSLSSYYMMWVRQAPGKGLEWIGIINTGGNAYYASWTKGRFTISKTSTTVDLKITSPTTEDTATYFCARAVPSGAGYSAGGLWGPGTLVTVSS
VL: DQVLTQTPASVEAAVGGTVTIKCQASQSVGFYLSWYQQKPGQPPKLLIYRASTLESGVPSRFKGSGSGTEFTLTISDLECADAATYYCQTNDYLASSAFGGGTEVVVR
notes: also called monoclonal antibody 92
- binding result: binds
